Reference: patent US20240294670A1 (University of Texas, published 2024)

B1: anti-CHI3L1 monoclonal antibody C61 (antibody, V domains shown)
VH: QEQLEESGGDLVKPEGSLTLTCTASGFSFSSSYWICWVRQAPGKGLEWIACIYAGGSGSTYYASWAKGRFTISKTSSTTVTLQMTSLTAADAATYFCARDGVSGSGWFFNLWGPGTLVTVSS
VL: DVVMTQTPASVSEPVGGTVTIKCQASQSISSYLTWYQQKPGQPPKLLIYKASTLASGVSSRFKGSGSGTEFTLTISDLECADAATYYCQSSYYGPSDVDFSPFGGGTEVEIK
notes: Rabbit mAb from single B cells, expressed as full length IgG in HEK293
B2: anti-CHI3L1 monoclonal antibody C55 (antibody, V domains shown)
VH: QSVKESGGDLVKPGASLTLTCTASGFSFSSDYDIYWVRQAPGKGLEWIAWIDGGSSGEIYANWAKGRFTISKTSSTTVTLQMTSLTAADTAAYFCARCIWSHNYYDLWGPGTLVTVSS
VL: AIKMTQTPSSVSAAVGGTVTINCQASEDIENYLAWYQQKPGQPPKLLIYRASTLASGVSSRFKGSGSGTEFTLTISDLECADAATYWCQQGYSGSNVDNFFGGGTKVVVE
notes: Rabbit mAb from single B cells, expressed as full length IgG in HEK293; also called clone 55
B3: anti-CHI3L1 monoclonal antibody C68 (antibody, V domains shown)
VH: QSVEESGGDLVKPGASLTLTCTASGFSFSGPYWISWVRQAPGRGLEWIASIGARSSGSTHYASWAKGRFTISKTASTTVTLQMTSLTAADTATYFCARSYPAYAGDGYALYYFNLWGPGTLVTVSS
VL: DVVMTQTPASVSAAVGGTVTIKCQASEDIYSLLAWYQQKPGQPPKFLIYDASDLASGVPSRFSGSGSGTEYTLTINDLKCDDAATYYCQGGYYSGDGTDIPFGGGTELEIL
notes: as for B1
B4: anti-CHI3L1 monoclonal antibody C64 (antibody, V domains shown)
VH: QSVEESGGDLVKPGASLTLTCTASGFSFSNNYWICWIRQAPGKGLEWIACIYAGDTGTAYYANWAKGRFTISKTSSTTVTLQMTSLTAADTATYFCARDGDGVGNGGTFALWGPGTLVTVSS
VL: ALVMTQTPASVEAAVGGTVTIRCQASERIGNALAWYQQKPGQPPKLLIYQTSKLTSGVPSRFKGSGSGTEHTLTISDLECADAATYYCQSYYYTGSISYEFGGGTKVVVE
notes: as for B1
B5: anti-CHI3L1 monoclonal antibody C57 (antibody, V domains shown)
VH: QSVEESGGGLVQPGGSLTLTCKASGFSFSSGYWMCWVRQAPGKGLEWIACIGASYGGTFYASWAKGRFTISKTSSTTVTLQMTSLTAADTATYFCTRDDGGLDNPNLWGPGTLVTVSS
VL: DPVLTQTPASVEAAVGGTVTIKCQASQSIGSILAWYQQKPGQPPHLLIYAAAKLASGVPSRFKGSGSGTQFTLTISGVECDDAATYYCQSYYYSVTTSYSNSFGGGTEVVVK
notes: as for B1
B6: anti-CHI3L1 monoclonal antibody C65 (antibody, V domains shown)
VH: QSVEESGGGLVQPEGSLTLTCTASGFSFSSSYYMCWVRQAPGKGLEWIACIFTGGVSTYYASWVNGRFTISKTSSTTVTLQMTSLTAADTATYFCARTYTAGFTGDNYFNLWGPGTLVTVSS
VL: AQVLTQTPASVEAAVGGTVTIKCQASQSISSYLAWYQQKPGQPPKLLIYRASTLASGVPSRFKGSGSGTEFTLTISDLECADAATYYCQSDYYSSSSNNGFVFGGGTEVVVK
notes: as for B1
B7: anti-CHI3L1 monoclonal antibody C30 (antibody, V domains shown)
VH: QEQLVESGGGLVTPGGTLTLTCTASGFDFSSYYYMCWVRQAPGKGLELIAAIDTGSGETYYASWANGRFTISKTSSTTVTLQMTSLTAADTATYFCARDPYFGTNLWGPGTLVTVSS
VL: DPMLTQTPSPVSAAVGGTVTITCQASQSVYNNNYLSWFQQKPGQPPKLLIYKASILASGVPSRFKGSGSGTQFTLTISDLQCDDAATYYCLGGYSSPSDDAFGGGTKVVVE
notes: Rabbit mAb

target: T1, recombinant mouse CHI3L1 (mouse, UniProt Q61362 30-389, limits assumed); assay: BLI (Octet), mAb on protein A sensor, CHI3L1 in solution, 1:1 fit
T1 construct: His-tagged; also called mCHI3L1; mChi3l1
Method: FIG. 8. Kinetic binding sensorgrams collected on Octet instrument for determination of kon and koff rates for each CHI3L1 antibody.
Binding affinity of anti-CHI3L1 monoclonal antibodies determined using Bio-layer interferometry (BLI), a sensor-based Octet instrument. […] Following by kinetics buffer washing to baseline, the loaded biosensors were exposed to a series of recombinant CHI3L1 protein at 0.1-200 nM range and background subtraction was used to correct for any background from sensor drifting. All experiments were performed with shaking at 1,000 rpm. Background wavelength shifts were measured from reference biosensors that were loaded with antibody and followed with buffer without antigen. ForteBio's data analysis software was used to fit the data to a 1:1 binding model to extract an association rate and dissociation rate. The KD was calculated using the ratio of koff/kon and the estimated values of KD for CHI3L1 mAbs in Table C.

T1 sequence (Q61362 30-389 limits assumed): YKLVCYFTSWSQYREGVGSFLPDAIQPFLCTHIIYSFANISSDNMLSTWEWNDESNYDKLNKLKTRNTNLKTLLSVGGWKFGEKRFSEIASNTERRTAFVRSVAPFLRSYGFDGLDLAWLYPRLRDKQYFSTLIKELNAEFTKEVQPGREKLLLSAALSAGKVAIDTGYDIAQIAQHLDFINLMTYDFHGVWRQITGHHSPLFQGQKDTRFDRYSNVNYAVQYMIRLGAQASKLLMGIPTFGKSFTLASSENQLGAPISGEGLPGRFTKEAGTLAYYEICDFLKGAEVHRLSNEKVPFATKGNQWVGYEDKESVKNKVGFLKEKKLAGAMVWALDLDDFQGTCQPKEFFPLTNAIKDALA

Kd [nM] | koff [s⁻¹] | kon [M⁻¹ s⁻¹] | Binder
2.81 | 0.000201 | 71500 | B1
1.22 | 0.000141 | 115000 | B2
0.799 | 0.00011 | 138000 | B3
0.254 | 2.71e-05 | 107000 | B4
4.09 | 0.000223 | 54500 | B5
6 | 0.000756 | 126000 | B6

target: T2, recombinant human CHI3L1 (human, UniProt P36222 22-383); assay: ELISA: human CHI3L1 coated on the plate, B cell culture supernatant 100 ul/well, A450
T2 construct: His-tagged recombinant protein (Sino Biological 11227-H08H, or in-house HEK293 protein with 6xHIS-tag and avi-tag); also called hCHI3L1; hChi3l1
Method: FIG. 7. The ELISA binding of the supernatant antibody to the human CHI3L1. (hCHI3L1), and mouse CHI3L1 (mCHI3L1). The CHI3L1 protein was coated on maxi-sorp 96-well plates, cell culture supernatant (100 ul/well) was used for binding on the antigen coated plate. Binding signals (A450 nm) are shown in Y-axis and CHI3L1 mAbs are shown on X-axis.
Binding affinity of anti-CHI3L1 monoclonal antibodies to the CHI3L1 protein using ELISA method. Binding of CHI3L1 by monoclonal antibodies was first screened by ELISA using supernatants collected from the B cell cultures and cross reactivity to mouse CHI3L1 protein was determined (FIG. 7).

T2 sequence (P36222 22-383 limits assumed): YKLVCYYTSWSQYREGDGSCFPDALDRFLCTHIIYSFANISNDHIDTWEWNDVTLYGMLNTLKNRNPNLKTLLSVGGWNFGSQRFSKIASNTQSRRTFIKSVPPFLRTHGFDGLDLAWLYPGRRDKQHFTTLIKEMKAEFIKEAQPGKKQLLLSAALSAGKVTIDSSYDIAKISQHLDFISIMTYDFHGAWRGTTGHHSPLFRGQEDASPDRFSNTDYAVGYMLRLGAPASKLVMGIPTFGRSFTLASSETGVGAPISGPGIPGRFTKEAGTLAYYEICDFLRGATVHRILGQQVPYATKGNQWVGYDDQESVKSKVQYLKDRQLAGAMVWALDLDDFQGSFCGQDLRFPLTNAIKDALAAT

binding result | Binder
no binding | B1
binds | B7
no binding | B3
no binding | B4
no binding | B5
